Reference: publication PMC5061722

What was measured:
Assay in all cases: SEC
[1] = target: EpsE-XcpR CM-Hcp1 chimera fusion (UniProt P37093)
[2] = target: full-length EpsE-Hcp1 fusion (pET21(d)epsE(1-503)-8aa-hcp1-his6) (UniProt P37093)
[3] = target: truncated ΔN1-EpsE-Hcp1 fusion (pET21(d)epsE(100-503)-8aa-hcp1-his6) (UniProt P37093)

In the case of “EpsE-XcpR CM-Hcp1 chimera fusion (from UniProt P37093)”, the stoichiometry N [1] is reported as 6.
Substance “full-length EpsE-Hcp1 fusion (pET21(d)epsE(1-503)-8aa-hcp1-his6) (from UniProt P37093 1-503)” has a stoichiometry N [2] of 6.
“truncated ΔN1-EpsE-Hcp1 fusion (pET21(d)epsE(100-503)-8aa-hcp1-his6) (from UniProt P37093 100-503)” was tested, and the stoichiometry N [3] was 6.
